The series has as its target T1, VvLBD13 (Vitis vinifera cv. Shine Muscat, UniProt D7SJL6 27-229).
T1 sequence: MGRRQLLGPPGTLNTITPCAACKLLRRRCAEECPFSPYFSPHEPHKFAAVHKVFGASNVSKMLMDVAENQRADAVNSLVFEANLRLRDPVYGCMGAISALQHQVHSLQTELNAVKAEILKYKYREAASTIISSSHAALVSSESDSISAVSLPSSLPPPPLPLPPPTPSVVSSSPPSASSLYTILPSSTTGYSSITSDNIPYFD
Put plainly: EMSA; with unlabeled cold probe competition; EMSA kit (Thermo 20148), 25 C, 30 min; buffer, salt and pH not stated. As to conditions: protein: recombinant; tags: His (pET-32a(+)); chain copies: 2; label: 5' biotin; blunt. On the technique in general: Mobility shift assays separate free from complexed probe on a gel.

B1: VvXTH10 promoter probe (dsDNA)
DNA 1: TCGAGTGTTGCGGCTTTGAAAAATA
DNA 2: TATTTTTCAAAGCCGCAACACTCGA
For B1, the binding result is “binds”.

B2: VvEXPLA1 promoter probe (dsDNA)
DNA 1: AATAGAGAAGCCCACACGTGAGCAA
DNA 2: TTGCTCACGTGTGGGCTTCTCTATT
As for B2, the binding result is reported as “binds”.

(Values after paper PMC11879436, “VvARF19 represses VvLBD13-mediated cell wall degradation to delay softening of grape berries”.)
